This note sets out measurements from article PMC8313675, “Molecular insights into the human ABCB6 transporter” (Cell Discovery, 2021).

Data set [1] concerns the molecule itself. The data set is described as follows: cryo-EM structure; apo-state WT hABCB6 in POPC:POPE (3:1) MSP2N2 nanodiscs, inward-facing, C2 symmetry, 3.6 A.
Data set [2] deals with the molecule itself. The data set is described as follows: cryo-EM structure; hABCB6[EQ] in POPC:POPE MSP2N2 nanodiscs, incubated with 5 mM ATP-Mg2+ for 30 min at 37 C, occluded conformation, C2 symmetry, 3.5 A.

B1: human ABCB6 (hABCB6), wild type, C-terminal Strep-tag (natural protein, UniProt Q9NP58 1-842, looked up)
chain: MVTVGNYCEAEGPVGPAWMQDGLSPCFFFTLVPSTRMALGTLALVLALPCRRRERPAGADSLSWGAGPRISPYVLQLLLATLQAALPLAGLAGRVGTARGAPLPSYLLLASVLESLAGACGLWLLVVERSQARQRLAMGIWIKFRHSPGLLLLWTVAFAAENLALVSWNSPQWWWARADLGQQVQFSLWVLRYVVSGGLFVLGLWAPGLRPQSYTLQVHEEDQDVERSQVRSAAQQSTWRDFGRKLRLLSGYLWPRGSPALQLVVLICLGLMGLERALNVLVPIFYRNIVNLLTEKAPWNSLAWTVTSYVFLKFLQGGGTGSTGFVSNLRTFLWIRVQQFTSRRVELLIFSHLHELSLRWHLGRRTGEVLRIADRGTSSVTGLLSYLVFNVIPTLADIIIGIIYFSMFFNAWFGLIVFLCMSLYLTLTIVVTEWRTKFRRAMNTQENATRARAVDSLLNFETVKYYNAESYEVERYREAIIKYQGLEWKSSASLVLLNQTQNLVIGLGLLAGSLLCAYFVTEQKLQVGDYVLFGTYIIQLYMPLNWFGTYYRMIQTNFIDMENMFDLLKEETEVKDLPGAGPLRFQKGRIEFENVHFSYADGRETLQDVSFTVMPGQTLALVGPSGAGKSTILRLLFRFYDISSGCIRIDGQDISQVTQASLRSHIGVVPQDTVLFNDTIADNIRYGRVTAGNDEVEAAAQAAGIHDAIMAFPEGYRTQVGERGLKLSGGEKQRVAIARTILKAPGIILLDEATSALDTSNERAIQASLAKVCANRTTIVVAHRLSTVVNADQILVIKDGCIVERGRHEALLSRGGVYADMWQLQQGQEETSEDTKPQTMER
notes: ABCB6, Homo sapiens, 842-amino acid protein; theoretical MW 94 kDa; TMD0 (residues 1-244) is in the protein but obscure in the map; PDB and EMDB ids are assigned by the order of the data availability sentence; also called WT hABCB6; hABCB6-WT; not shown: Strep-tag, C-terminal, kept
In the case of B1, in data set [1], the binding result was “binds”.

B2: human ABCB6 E752Q mutant (hABCB6[EQ]), C-terminal Strep-tag (natural protein, UniProt Q9NP58 1-842, looked up)
chain: MVTVGNYCEAEGPVGPAWMQDGLSPCFFFTLVPSTRMALGTLALVLALPCRRRERPAGADSLSWGAGPRISPYVLQLLLATLQAALPLAGLAGRVGTARGAPLPSYLLLASVLESLAGACGLWLLVVERSQARQRLAMGIWIKFRHSPGLLLLWTVAFAAENLALVSWNSPQWWWARADLGQQVQFSLWVLRYVVSGGLFVLGLWAPGLRPQSYTLQVHEEDQDVERSQVRSAAQQSTWRDFGRKLRLLSGYLWPRGSPALQLVVLICLGLMGLERALNVLVPIFYRNIVNLLTEKAPWNSLAWTVTSYVFLKFLQGGGTGSTGFVSNLRTFLWIRVQQFTSRRVELLIFSHLHELSLRWHLGRRTGEVLRIADRGTSSVTGLLSYLVFNVIPTLADIIIGIIYFSMFFNAWFGLIVFLCMSLYLTLTIVVTEWRTKFRRAMNTQENATRARAVDSLLNFETVKYYNAESYEVERYREAIIKYQGLEWKSSASLVLLNQTQNLVIGLGLLAGSLLCAYFVTEQKLQVGDYVLFGTYIIQLYMPLNWFGTYYRMIQTNFIDMENMFDLLKEETEVKDLPGAGPLRFQKGRIEFENVHFSYADGRETLQDVSFTVMPGQTLALVGPSGAGKSTILRLLFRFYDISSGCIRIDGQDISQVTQASLRSHIGVVPQDTVLFNDTIADNIRYGRVTAGNDEVEAAAQAAGIHDAIMAFPEGYRTQVGERGLKLSGGEKQRVAIARTILKAPGIILLDQATSALDTSNERAIQASLAKVCANRTTIVVAHRLSTVVNADQILVIKDGCIVERGRHEALLSRGGVYADMWQLQQGQEETSEDTKPQTMER
notes: ABCB6, Homo sapiens, 842-amino acid protein, with the Walker B mutation E752Q; Same construct as m1 with E752Q; Incubated with 5 mM ATP-Mg2+ (and 20 uM PPIX) before grid preparation; PDB and EMDB ids are assigned by the order of the data availability sentence; also called hABCB6 E752Q; not shown: Strep-tag, C-terminal, kept
Turning to B2, the binding result in data set [2] was “binds”.
